From EP4663654A1 (Hangzhou Sciwind Biosciences Co., Ltd., dated 2025) come the findings set out here.

First the molecules themselves.
T1: human amylin receptor (AMY3) on CHO-K1/Ga15/AMY3 amylin receptor/CRE-luc cells (human, UniProt P30988 25-474; O60896 24-148)
T1 sequence (looked up) 1: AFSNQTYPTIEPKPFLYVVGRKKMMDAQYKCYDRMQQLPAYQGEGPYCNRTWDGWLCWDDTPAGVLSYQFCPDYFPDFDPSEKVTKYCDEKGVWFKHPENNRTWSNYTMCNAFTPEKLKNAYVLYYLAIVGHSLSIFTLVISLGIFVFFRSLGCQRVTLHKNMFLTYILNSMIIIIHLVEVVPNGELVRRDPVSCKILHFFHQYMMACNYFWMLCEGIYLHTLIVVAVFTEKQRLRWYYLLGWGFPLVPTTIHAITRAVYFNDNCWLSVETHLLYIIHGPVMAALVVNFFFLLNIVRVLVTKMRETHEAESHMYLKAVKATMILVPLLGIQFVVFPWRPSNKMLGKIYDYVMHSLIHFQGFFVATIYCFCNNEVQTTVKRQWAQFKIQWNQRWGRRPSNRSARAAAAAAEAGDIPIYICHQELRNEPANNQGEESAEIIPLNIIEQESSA
T1 sequence (looked up) 2: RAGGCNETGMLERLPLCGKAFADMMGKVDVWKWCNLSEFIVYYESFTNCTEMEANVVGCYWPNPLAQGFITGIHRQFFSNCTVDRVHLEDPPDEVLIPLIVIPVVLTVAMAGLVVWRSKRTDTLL

B1: polypeptide derivative M4 (peptide)
peptide: {C20 diacid-γGlu}-ASQLSTAVLGRLADFLRHFTDRDRDILPPTNVGSNTP-NH2
SMILES: CC[C@H](C)[C@H](NC(=O)[C@H](CC(=O)O)NC(=O)[C@H](CCCNC(=N)N)NC(=O)[C@H](CC(=O)O)NC(=O)[C@H](CCCNC(=N)N)NC(=O)[C@H](CC(=O)O)NC(=O)[C@@H](NC(=O)[C@H](Cc1ccccc1)NC(=O)[C@H](Cc1c[nH]cn1)NC(=O)[C@H](CCCNC(=N)N)NC(=O)[C@H](CC(C)C)NC(=O)[C@H](Cc1ccccc1)NC(=O)[C@H](CC(=O)O)NC(=O)[C@H](C)NC(=O)[C@H](CC(C)C)NC(=O)[C@H](CCCNC(=N)N)NC(=O)CNC(=O)[C@H](CC(C)C)NC(=O)[C@@H](NC(=O)[C@H](C)NC(=O)[C@@H](NC(=O)[C@H](CO)NC(=O)[C@H](CC(C)C)NC(=O)[C@H](CCC(N)=O)NC(=O)[C@H](CO)NC(=O)[C@H](C)NC(=O)CC[C@H](NC(=O)CCCCCCCCCCCCCCCCCCC(=O)O)C(=O)O)[C@@H](C)O)C(C)C)[C@@H](C)O)C(=O)N[C@@H](CC(C)C)C(=O)N1CCC[C@H]1C(=O)N1CCC[C@H]1C(=O)N[C@H](C(=O)N[C@@H](CC(N)=O)C(=O)N[C@H](C(=O)NCC(=O)N[C@@H](CO)C(=O)N[C@@H](CC(N)=O)C(=O)N[C@H](C(=O)N1CCC[C@H]1C(N)=O)[C@@H](C)O)C(C)C)[C@@H](C)O
B2: polypeptide derivative M42 (peptide)
peptide: {C20 diacid-γGlu}-ASQLSTAATQRLADFLRHSSEELKPILPPTNVGSNT[Hyp]-NH2
SMILES: CC[C@H](C)[C@H](NC(=O)[C@@H]1CCCN1C(=O)[C@H](CCCCN)NC(=O)[C@H](CC(C)C)NC(=O)[C@H](CCC(=O)O)NC(=O)[C@H](CCC(=O)O)NC(=O)[C@H](CO)NC(=O)[C@H](CO)NC(=O)[C@H](Cc1c[nH]cn1)NC(=O)[C@H](CCCNC(=N)N)NC(=O)[C@H](CC(C)C)NC(=O)[C@H](Cc1ccccc1)NC(=O)[C@H](CC(=O)O)NC(=O)[C@H](C)NC(=O)[C@H](CC(C)C)NC(=O)[C@H](CCCNC(=N)N)NC(=O)[C@H](CCC(N)=O)NC(=O)[C@@H](NC(=O)[C@H](C)NC(=O)[C@H](C)NC(=O)[C@@H](NC(=O)[C@H](CO)NC(=O)[C@H](CC(C)C)NC(=O)[C@H](CCC(N)=O)NC(=O)[C@H](CO)NC(=O)[C@H](C)NC(=O)CC[C@H](NC(=O)CCCCCCCCCCCCCCCCCCC(=O)O)C(=O)O)[C@@H](C)O)[C@@H](C)O)C(=O)N[C@@H](CC(C)C)C(=O)N1CCC[C@H]1C(=O)N1CCC[C@H]1C(=O)N[C@H](C(=O)N[C@@H](CC(N)=O)C(=O)N[C@H](C(=O)NCC(=O)N[C@@H](CO)C(=O)N[C@@H](CC(N)=O)C(=O)N[C@H](C(=O)N1C[C@H](O)C[C@H]1C(N)=O)[C@@H](C)O)C(C)C)[C@@H](C)O
B3: polypeptide derivative M41 (peptide)
peptide: {C20 diacid-γGlu}-ASQLSTAATQRLADFLRHSSQQLKPILPPTNVGSNT[Hyp]-NH2
SMILES: CC[C@H](C)[C@H](NC(=O)[C@@H]1CCCN1C(=O)[C@H](CCCCN)NC(=O)[C@H](CC(C)C)NC(=O)[C@H](CCC(N)=O)NC(=O)[C@H](CCC(N)=O)NC(=O)[C@H](CO)NC(=O)[C@H](CO)NC(=O)[C@H](Cc1c[nH]cn1)NC(=O)[C@H](CCCNC(=N)N)NC(=O)[C@H](CC(C)C)NC(=O)[C@H](Cc1ccccc1)NC(=O)[C@H](CC(=O)O)NC(=O)[C@H](C)NC(=O)[C@H](CC(C)C)NC(=O)[C@H](CCCNC(=N)N)NC(=O)[C@H](CCC(N)=O)NC(=O)[C@@H](NC(=O)[C@H](C)NC(=O)[C@H](C)NC(=O)[C@@H](NC(=O)[C@H](CO)NC(=O)[C@H](CC(C)C)NC(=O)[C@H](CCC(N)=O)NC(=O)[C@H](CO)NC(=O)[C@H](C)NC(=O)CC[C@H](NC(=O)CCCCCCCCCCCCCCCCCCC(=O)O)C(=O)O)[C@@H](C)O)[C@@H](C)O)C(=O)N[C@@H](CC(C)C)C(=O)N1CCC[C@H]1C(=O)N1CCC[C@H]1C(=O)N[C@H](C(=O)N[C@@H](CC(N)=O)C(=O)N[C@H](C(=O)NCC(=O)N[C@@H](CO)C(=O)N[C@@H](CC(N)=O)C(=O)N[C@H](C(=O)N1C[C@H](O)C[C@H]1C(N)=O)[C@@H](C)O)C(C)C)[C@@H](C)O
B4: polypeptide derivative M45 (peptide)
peptide: {C20 diacid-γGlu}-ASQLSTAATQRLADFLRHSSN[NMeD]LKPILPPTNVGSNT[Hyp]-NH2
SMILES: CC[C@H](C)[C@H](NC(=O)[C@@H]1CCCN1C(=O)[C@H](CCCCN)NC(=O)[C@H](CC(C)C)NC(=O)[C@H](CC(=O)O)N(C)C(=O)[C@H](CC(N)=O)NC(=O)[C@H](CO)NC(=O)[C@H](CO)NC(=O)[C@H](Cc1c[nH]cn1)NC(=O)[C@H](CCCNC(=N)N)NC(=O)[C@H](CC(C)C)NC(=O)[C@H](Cc1ccccc1)NC(=O)[C@H](CC(=O)O)NC(=O)[C@H](C)NC(=O)[C@H](CC(C)C)NC(=O)[C@H](CCCNC(=N)N)NC(=O)[C@H](CCC(N)=O)NC(=O)[C@@H](NC(=O)[C@H](C)NC(=O)[C@H](C)NC(=O)[C@@H](NC(=O)[C@H](CO)NC(=O)[C@H](CC(C)C)NC(=O)[C@H](CCC(N)=O)NC(=O)[C@H](CO)NC(=O)[C@H](C)NC(=O)CC[C@H](NC(=O)CCCCCCCCCCCCCCCCCCC(=O)O)C(=O)O)[C@@H](C)O)[C@@H](C)O)C(=O)N[C@@H](CC(C)C)C(=O)N1CCC[C@H]1C(=O)N1CCC[C@H]1C(=O)N[C@H](C(=O)N[C@@H](CC(N)=O)C(=O)N[C@H](C(=O)NCC(=O)N[C@@H](CO)C(=O)N[C@@H](CC(N)=O)C(=O)N[C@H](C(=O)N1C[C@H](O)C[C@H]1C(N)=O)[C@@H](C)O)C(C)C)[C@@H](C)O
B5: polypeptide derivative M43 (peptide)
peptide: {C20 diacid-γGlu}-ASQLSTAATQRLADFLRHSSSSLKPILPPTNVGSNT[Hyp]-NH2
SMILES: CC[C@H](C)[C@H](NC(=O)[C@@H]1CCCN1C(=O)[C@H](CCCCN)NC(=O)[C@H](CC(C)C)NC(=O)[C@H](CO)NC(=O)[C@H](CO)NC(=O)[C@H](CO)NC(=O)[C@H](CO)NC(=O)[C@H](Cc1c[nH]cn1)NC(=O)[C@H](CCCNC(=N)N)NC(=O)[C@H](CC(C)C)NC(=O)[C@H](Cc1ccccc1)NC(=O)[C@H](CC(=O)O)NC(=O)[C@H](C)NC(=O)[C@H](CC(C)C)NC(=O)[C@H](CCCNC(=N)N)NC(=O)[C@H](CCC(N)=O)NC(=O)[C@@H](NC(=O)[C@H](C)NC(=O)[C@H](C)NC(=O)[C@@H](NC(=O)[C@H](CO)NC(=O)[C@H](CC(C)C)NC(=O)[C@H](CCC(N)=O)NC(=O)[C@H](CO)NC(=O)[C@H](C)NC(=O)CC[C@H](NC(=O)CCCCCCCCCCCCCCCCCCC(=O)O)C(=O)O)[C@@H](C)O)[C@@H](C)O)C(=O)N[C@@H](CC(C)C)C(=O)N1CCC[C@H]1C(=O)N1CCC[C@H]1C(=O)N[C@H](C(=O)N[C@@H](CC(N)=O)C(=O)N[C@H](C(=O)NCC(=O)N[C@@H](CO)C(=O)N[C@@H](CC(N)=O)C(=O)N[C@H](C(=O)N1C[C@H](O)C[C@H]1C(N)=O)[C@@H](C)O)C(C)C)[C@@H](C)O
B6: polypeptide derivative M44 (peptide)
peptide: {C20 diacid-γGlu}-ASQLSTAATQRLADFLRHSSN[NMeN]LKPILPPTNVGSNT[Hyp]-NH2
SMILES: CC[C@H](C)[C@H](NC(=O)[C@@H]1CCCN1C(=O)[C@H](CCCCN)NC(=O)[C@H](CC(C)C)NC(=O)[C@H](CC(N)=O)N(C)C(=O)[C@H](CC(N)=O)NC(=O)[C@H](CO)NC(=O)[C@H](CO)NC(=O)[C@H](Cc1c[nH]cn1)NC(=O)[C@H](CCCNC(=N)N)NC(=O)[C@H](CC(C)C)NC(=O)[C@H](Cc1ccccc1)NC(=O)[C@H](CC(=O)O)NC(=O)[C@H](C)NC(=O)[C@H](CC(C)C)NC(=O)[C@H](CCCNC(=N)N)NC(=O)[C@H](CCC(N)=O)NC(=O)[C@@H](NC(=O)[C@H](C)NC(=O)[C@H](C)NC(=O)[C@@H](NC(=O)[C@H](CO)NC(=O)[C@H](CC(C)C)NC(=O)[C@H](CCC(N)=O)NC(=O)[C@H](CO)NC(=O)[C@H](C)NC(=O)CC[C@H](NC(=O)CCCCCCCCCCCCCCCCCCC(=O)O)C(=O)O)[C@@H](C)O)[C@@H](C)O)C(=O)N[C@@H](CC(C)C)C(=O)N1CCC[C@H]1C(=O)N1CCC[C@H]1C(=O)N[C@H](C(=O)N[C@@H](CC(N)=O)C(=O)N[C@H](C(=O)NCC(=O)N[C@@H](CO)C(=O)N[C@@H](CC(N)=O)C(=O)N[C@H](C(=O)N1C[C@H](O)C[C@H]1C(N)=O)[C@@H](C)O)C(C)C)[C@@H](C)O

Starred links: 1 amine or outer side, 2 acyl side, 3 side chain; linkers in the order of their positions; H or OH if unused. Non-standard residues stand in square brackets, D forms with d. *: point of attachment. C20 diacid = O=C(O)CCCCCCCCCCCCCCCCCCC(=O)*; γGlu = O=C(O)[C@H](CCC(=O)[*:2])N[*:1]; Hyp = O=C(O)[C@@H]1C[C@@H](O)CN1; NMeD = CN[C@@H](CC(=O)O)C(=O)O; NMeN = CN[C@@H](CC(N)=O)C(=O)O

In this test the target is T1, human amylin receptor (AMY3) on …. As to the kind of experiment: cell-based or functional assay.
For B1, the “EC50/nM, CRE-luciferase reporter in amylin receptor/CRE-luc CHO cells” value (“EC50/nM … in amylin receptor/CRE-luc CHO cells” below) was 0.081 nM and the “Relative activity (the EC50 ratio of Cagrilintide to the compound)” value came out at 32%.
Consider B2, for which the “EC50/nM … in amylin receptor/CRE-luc CHO cells” value worked out at 0.28 nM and the “Relative activity (the EC50 ratio of Cagrilintide to the compound)” value turned out to be 32%.
Taken in the same sequence, the figures for B3 were 0.08 nM and 113%.
Taken in the same sequence, the figures for B4 were 0.07 nM and 129%.
Taken in the same sequence, the figures for B5 were 0.05 nM and 180%.
Regarding B6, the “EC50/nM … in amylin receptor/CRE-luc CHO cells” value was found to be 0.1 nM and the “Relative activity (the EC50 ratio of Cagrilintide to the compound)” value came to 130%.
